# What was measured:
# [1] = test system: T1, XreR1 (Photorhabdus luminescens DJC), ORF:d6b45183; assay: MST; conditions: SPR (Biacore 3000, SA chip), proteins in dialysis buffer: 50 mM Tris/HCl pH 7.5, 10% glycerol, 500 mM NaCl, 2 mM beta-mercaptoethanol; 25 C; 30 ul/min; 1:1 …
# T1 sequence: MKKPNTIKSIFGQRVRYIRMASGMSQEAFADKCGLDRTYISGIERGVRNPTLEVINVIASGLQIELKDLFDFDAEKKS
# [2] = test system: T2, XreR2 (Photorhabdus luminescens DJC), ORF:b2ab5127; assay: MST; conditions: SPR (Biacore 3000, SA chip), proteins in dialysis buffer: 50 mM Tris/HCl pH 7.5, 10% glycerol, 500 mM NaCl, 2 mM beta-mercaptoethanol; 25 C; 30 ul/min; 1:1 …
# T2 sequence: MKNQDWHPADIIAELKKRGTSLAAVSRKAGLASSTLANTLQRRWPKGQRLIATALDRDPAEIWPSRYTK
# [3] = test system: T1, XreR1 (Photorhabdus luminescens DJC), ORF:d6b45183; assay: SPR; conditions: SPR (Biacore 3000, SA chip), proteins in dialysis buffer: 50 mM Tris/HCl pH 7.5, 10% glycerol, 500 mM NaCl, 2 mM beta-mercaptoethanol; 25 C; 30 ul/min; 1:1 …
# [4] = test system: T2, XreR2 (Photorhabdus luminescens DJC), ORF:b2ab5127; assay: SPR; conditions: SPR (Biacore 3000, SA chip), proteins in dialysis buffer: 50 mM Tris/HCl pH 7.5, 10% glycerol, 500 mM NaCl, 2 mM beta-mercaptoethanol; 25 C; 30 ul/min; 1:1 …
# [5] = test system: XreR1 (Photorhabdus luminescens DJC); assay: SPR; conditions: SPR (Biacore 3000, SA chip), proteins in dialysis buffer: 50 mM Tris/HCl pH 7.5, 10% glycerol, 500 mM NaCl, 2 mM beta-mercaptoethanol, 25 C, 30 ul/min, 1:1 …
substance,measurement,setting,value
GGGTGCCAGTCTTGATTTTTCATTAATTAATCCTCCGTGTTACGGATAACTTTGATATGAAAAGGTAAGTCGTTACATAGTAGACTATAAGTCACATATGATAACATAACTTACCATAAAAAGTGACTCATAGTCCGTGGTCTGATAAGTAACATCATTCGATACTTATCAG (double strand) [PxreR2],binding,[1],binds
same,binding,[2],binds
same,Kd,[3],0.3 nM
same,binding,[4],binds
GTTTCATAGCACACCTCAGAAACACACTTAAAATGAACATGAGGAAATGGATTGCGAGCAGGAAAAGATAAATGCAAACAGCTATAAGTAATCATTACTCTTACCGAATGATATAAAGTAGATTGGAGCAGCTTATCTCATTGATAAACTACTCCACTTTAATTTACAGCCAC (double strand) [PpTAS],binding,[2],binds
same,binding,[3],no binding
same,binding,[4],binds
PxreR1,Kd,"[5]; ka 4.5E+06 1/Ms, kd 2.9E-3 1/s",0.6 nM
PxreR2,Kd,"[5]; ka printed 2.8E+05 1/Ms, kd 8.9E-4 1/s (ratio inconsistent with the printed KD)",0.3 nM

# — publication PMC7905540
